Where two headings read alike, the source gives them in different places.
Tests used:
[1] = Competitive TR-FRET assay modified for mAbs and Fabs (T0, T24, T48); type: binding; conditions: 37° C.; for T24 hr IC50 shift: IC50 shift at 24 hr relative to T0; for T48 hr IC50 shift: IC50 shift at 48 hr relative to T0
Protocol: A competitive TR-FRET (time-resolved fluorescence resonance energy transfer) assay was developed to rank-order the dissociation of α-Compound A mAbs from Compound A as equilibrium is reached at 37° C. The assay buffer was HBS-N (10 mM HEPES, 150 mM NaCl, pH 7.4; GE Healthcare), 0.1% (w/v) BSA (bovine serum albumin; Sigma), 2% DMSO (dimethyl sulfoxide; Sigma). All reagents were prepared in assay buffer and dispensed in equal volumes into white 384 microplates with final volume of 20 μl per well at the following final concentrations: 4 nM COMPOUND 5, the biotinylated analog of COMPOUND 2, a 100 0.1 nM 7-pt titration of human α-Compound A antibodies, 0.1 nM europium-labeled α-mouse IgG (LANCE Eu-W1024; PerkinElmer), 5 nM streptavidin-D2 (Cisbio), and 4 nM mAb 26D5 VH_A10G_Y33A_S53P_M89V_G95A; VK_W32N_H38Q (P1-075621, the second-round optimization parent 26D5-295-B08 formatted with mouse IgG Fc). COMPOUND 5 and α-Compound A antibody titrations were added first to the microplate, and were subjected to an initial incubation at 37° C., 1000 rpm, for one hour to facilitate antibody binding to the compound. After the initial incubation period, the europium α-mouse IgG, streptavidin-D2, and 26D5-mouse IgG (P1-075621) were added sequentially, then the plate was returned to 37° C., 1000 rpm incubation. Microplates were read using a Perkin Elmer EnVision plate reader, and the measured FRET signal was defined as [665 nm]/[620 nm]*10,000. Microplates were read at 30 minutes (T0) and after 24 hour (T24) intervals. For each antibody titration, the FRET signal was converted to % Inhibition relative to wells without α-Compound A antibody: (100 ((FRET at [antibody concentration]/FRET at 0 nM)*100). The % inhibition antibody titrations were plotted using TIBCO Spotfire (v.7), and the IC50 was determined using a 4-parameter model curve fit. The IC50s at each timepoint were reported, as well as the IC50 curve shift relative to T0. An IC50 curve shift indicated α-Compound A antibody dissociation from the biotinylated compound as the assay reached equilibrium, which subsequently allowed 26D5-mouse IgG1 (P1-075621) competitor to bind and generate the FRET signal detected in the assay.
The competitive TR-FRET assay defined above was also modified to assess optimized 26D5 antibody progeny that were reformatted as Fabs. The α-Compound A antibody and Fab titration series were extended to 250 0.244 nM (11-pt titration), and replicates of each concentration were collected in quadruplicate. The assay incubation was extended to include an additional 48 hr timepoint to ensure equilibrium was reached, and T48 hr IC50 and IC50 shifts were reported. The % inhibition titrations were plotted in Graphpad Prism (v.8) and fit to a 4-parameter model. All other experimental setup conditions were otherwise identical to the antibody TF-FRET assay.
Competitive FRET data collected for affinity-optimized α-Compound A 26D5 progeny comparing human antibodies and Fabs are shown in FIG. 14 and Table 13. Each panel represents a single α-Compound A sequence, with antibody (mAb, solid lines, circles) and Fab (dotted lines, triangles) formats overlaid. […] The names of the mAbs/Fabs in Table 13 refer to the corresponding sequences in Tables 1-3. All mAbs listed in Table 13 were in a human IgG1f/LC kappa format.

[2] = SPR (Biacore) Protein A mAb capture, Compound A injected; conditions: 37° C., binding to Compound A, for rank ordering only
Protocol: The binding of hybridoma expressed 26D5 parent mAb (VH SEQ ID NO: 83 and VL SEQ ID NO: 98 in IgG1 f format)(P1-072224) and affinity matured mAbs to Compound A was examined by SPR (Biacore™) using a protein A capture method. The running buffer was 1×PBS (phosphate buffered saline, pH 7.4) with 0.05% Tween 20 and 2% DMSO. Binding experiments were carried out at 37° C. Protein A was coated on a CM5 S-series sensor chip (Cytiva, Cat. No. 29149603) at high density (2000+ RUs of protein A). The immobilization of protein A was carried out using the standard amine coupling immobilization procedure recommended by the manufacturer. The affinity matured antibody was then captured at a concentration of 2 ug/mL on the protein A surface at a flow rate of 3 uL/min for 2 minutes. Compound A was then injected over the captured antibody at concentrations spanning 100-3 nM (100, 50, 25, 12.5, 6.25, 3.125 nM) (FIG. 10) and for screening concentrations spanning 100-3 nM (100, 33, 11 nM) for 2 minutes at a flow rate of 100 uL/min and allowed to dissociate for at least 450 seconds. The chip surface was regenerated after each cycle with a 40 second pulse of 10 mM Glycine, pH 1.5. Background binding to the protein A surface alone was used to subtract non-specific binding. All experiments were run on a Biacore T200 surface plasmon resonance instrument using Biacore T200 Control software v. 2. Data analysis was performed using Biacore T200 evaluation software v 3.1. Apparent affinities were determined for rank ordering only since dissociation rates were too slow to be measured by Biacore. The names of the mAbs in Table 10 refer to mAbs having the H and L chain sequences of the corresponding Fabs in Table 3 in an IgG1f format.

[3] = SPR (Biacore) on chip coated with BSA conjugated to COMPOUND 2; type: binding; conditions: 37° C., Fab over COMPOUND 2-BSA surface; for Ka / koff, dissociation rate constant: apparent; for Kd: apparent affinity
Protocol: The binding of the first round affinity matured antibody Fab fragments to conjugated versions of Compound A was examined by SPR (Biacore™) using a CM5 S-series sensor chip (Cytiva, Cat. No. 29149603) coated with BSA previously conjugated to COMPOUND 2, COMPOUND 3 or COMPOUND 1. The immobilization level was 150-250 RUs. The running buffer was 1×PBS (phosphate buffered saline, pH 7.4) with 0.05% Tween 20. […] The antibody Fab fragment at a concentration of between 200-0.8 nM was injected over the BSA-compound coated surface for 2 minutes at a flow rate of 30 uL/min. The antibody Fab fragment was then allowed to dissociate for 15 minutes. The chip surface was regenerated after each cycle with a 1 minute pulse of 10 mM Glycine, pH 2, and a 1 minute pulse of 50 mM NaOH. All experiments were run on the same equipment and analyzed with the same software as described before. Apparent affinities were determined for rank ordering only since dissociation rates were too slow to be measured by Biacore. Comparative experiments with selected mAbs were also conducted in a similar fashion (see FIG. 11).

[4] = read at 30 minutes (T0), competitor 26D5-mouse IgG (P1-075621), read-out: T0 IC50
[5] = apparent affinity, read-out: KD

Row | Molecule | IC50 ([1]; 24 hr, read-out: T24 hr IC50) | IC50 ([1]; 48 hr, read-out: T48 hr IC50) | T24 hr IC50 shift [1] | T48 hr IC50 shift [1] | IC50 [1, 4] | Kd [2, 5] | Ka ([2]; apparent) | Kd ([2]; apparent) | Ka [3] | koff, dissociation rate constant [3] | Kd [3]
1 | 26D5-75214-343-F06-mAb: human IgG1f/kappa mAb; VH SEQ ID NO: 53, VL SEQ ID NO: 85 (antibody, V domains shown) VH: EVQLVESGGGLIQPGGSLRLSCAASGFTVSSNAMSWVRQAPGKGLEWVSFIYPGGRTYYADSVKGRFTISRDNSKNTLYLQMNSLRAEDTAVYYCARAGFGGPDYWGQGTLVTVSS VL: DIQMTQSPSSVSASVGDRVTITCRASQGISSNLAWYQQKPGKAPKLLIYAASSLQSGVPSRFSGSGSGTDFTLTISSLQPEDFATYYCQQANEFPLTFGGGTKVEIK | 2.5 nM | 2.7 nM | 1.3 nM | 1.4 nM | 1.3 nM | < 0.05 nM | 1.2e+06 M⁻¹ s⁻¹ | <5e-05 s⁻¹ | – | – | –
2 | 26D5-GVR-Q-FT-Fab-SHORT: antibody Fab fragment; VH SEQ ID NO: 81, VL SEQ ID NO: 99; sequence in Table 3 (antibody, V domains shown) VH: EVQLVESGGGLIQPGGSLRLSCAASGFTVSRNYMSWVRQAPGKGLEWVSFIYSGGRTYYADSVKGRFTISRDNSKNTLYLQMNSLRAEDTAVYYCARGGFGGGDYWGQGTLVTVSS VL: DIQMTQSPSSVSASVGDRVTITCRASQGISSWLAWYQQKPGKAPKLLIYAASSLQSGVPSRFSGSGSGTDFTLTISSLQPEDFATYYCQQANSFPLTFGGGTKVEIK | – | – | – | – | – | – | – | – | 1.6e+06 M⁻¹ s⁻¹ | 0.0013 s⁻¹ | 0.9 nM
3 | 26D5-75203-343-B09-mAb: human IgG1f/kappa mAb; VH SEQ ID NO: 54, VL SEQ ID NO: 87 (antibody, V domains shown) VH: EVQLVESGGGLIQPGGSLRLSCAASGFTVSSNAMSWVRQAPGKGLEWVSYIYPGGRTYYADSVKGRFTISRDNSKNTLYLQMNSLRAEDTAVYYCARAGFGGGDYWGQGTLVTVSS VL: DIQMTQSPSSVSASVGDRVTITCRASQGISSNLAWYQQKPGKAPKLLIYAASTLQSGVPSRFSGSGSGTDFTLTISSLQPEDFATYYCQQANEFPLTFGGGTKVEIK | 3 nM | 3.1 nM | 0.4 nM | 0.5 nM | 2.6 nM | < 0.05 nM | 1.2e+06 M⁻¹ s⁻¹ | <5e-05 s⁻¹ | – | – | –
4 | 24H1-GQTV-Fab-LONG: antibody Fab fragment; VH SEQ ID NO: 80, VL SEQ ID NO: 98; sequence in Table 3 (antibody, V domains shown) VH: EVQLVESGGGLIQPGGSLRLSCAASGFTVSRNYMSWVRQAPGKGLEWVSFIYSGGSTYYADSVKGRFTISRDNSKNTLYLQMNSLRAEDTAVYYCARGGFGGGDYWGQGTLVTVSS VL: DIQMTQSPSSVSASVGDRVTITCRASQGISSWLAWYQHKPGKAPKLLIYAASSLQSGVPSRFSGSGSGTDFTLTISSLQPEDFATYYCQQANSFPLTFGGGTKVEIK | – | – | – | – | – | – | – | – | 790000 M⁻¹ s⁻¹ | 0.001 s⁻¹ | 1.3 nM
5 | 26D5-75202-343-A09-mAb: human IgG1f/kappa mAb; VH SEQ ID NO: 54, VL SEQ ID NO: 86 (antibody, V domains shown) VH: EVQLVESGGGLIQPGGSLRLSCAASGFTVSSNAMSWVRQAPGKGLEWVSYIYPGGRTYYADSVKGRFTISRDNSKNTLYLQMNSLRAEDTAVYYCARAGFGGGDYWGQGTLVTVSS VL: DIQMTQSPSSVSASVGDRVTITCRASQGIYSNLAWYQQKPGKAPKLLIYAASSLQSGVPSRFSGSGSGTDFTLTISSLQPEDFATYYCQQANEFPLTFGGGTKVEIK | 2.5 nM | 2.9 nM | 1.1 nM | 1.5 nM | 1.4 nM | < 0.09 nM | 590000 M⁻¹ s⁻¹ | <5e-05 s⁻¹ | – | – | –
6 | 26D5-GVR-Q-FT-Fab-LONG: antibody Fab fragment; VH SEQ ID NO: 81, VL SEQ ID NO: 99; sequence in Table 3 (antibody, V domains shown) VH: EVQLVESGGGLIQPGGSLRLSCAASGFTVSRNYMSWVRQAPGKGLEWVSFIYSGGRTYYADSVKGRFTISRDNSKNTLYLQMNSLRAEDTAVYYCARGGFGGGDYWGQGTLVTVSS VL: DIQMTQSPSSVSASVGDRVTITCRASQGISSWLAWYQQKPGKAPKLLIYAASSLQSGVPSRFSGSGSGTDFTLTISSLQPEDFATYYCQQANSFPLTFGGGTKVEIK | – | – | – | – | – | – | – | – | 1.3e+06 M⁻¹ s⁻¹ | 0.0016 s⁻¹ | 1.3 nM
